Measured values from the Human Domainome abundance scans (Beltran et al. 2025).
± gives the uncertainty stated by the source.

B1: Homeobox protein cut-like 2, residues 895 to 963; numbered along this chain, O14529 (parent)
chain: EVDTLELTRQVKEKLAKNGICQRIFGEKVLGLSQGSVSDMLSRPKPWSKLTQKGREPFIRMQLWLSDQL

Variants of: B1
Assay: abundance fitness (aPCA) (normalised: wild type 0, dead -1); higher = more abundant; growth selection in yeast, the domain comes from the species named
Conditions: Homo sapiens

Variant | abundance fitness
EVDTLELTRQVKEKLAKNGICQRIFGEKVLGLSQGSVSDMLSRPKPWSKLTQKGREPFIRMILWLSDQL [Q62I] | -0.277 ± 0.11
EVDTLELTRQVKEKLAKNGICQRIFGEKVLGLSQGSVSDMLSRPKPWSKLTQKGREPFIRMRLWLSDQL [Q62R] | 0.015 ± 0.029
EVDTLELTRHVKEKLAKNGICQRIFGEKVLGLSQGSVSDMLSRPKPWSKLTQKGREPFIRMQLWLSDQL [Q10H] | -0.228 ± 0.057
EVDTLELTRFVKEKLAKNGICQRIFGEKVLGLSQGSVSDMLSRPKPWSKLTQKGREPFIRMQLWLSDQL [Q10F] | -0.244 ± 0.04
EVDTLELTRQVKEKLAKNGICQNIFGEKVLGLSQGSVSDMLSRPKPWSKLTQKGREPFIRMQLWLSDQL [R23N] | 0.038 ± 0.13
EVDTLELTRQVKEKLAKNGICQRIFGEKVLGLSQGRVSDMLSRPKPWSKLTQKGREPFIRMQLWLSDQL [S36R] | -0.097 ± 0.056
EVDTLELTRQVKEKLAKNGICQRIFGEKVLGLSQGLVSDMLSRPKPWSKLTQKGREPFIRMQLWLSDQL [S36L] | 0.021 ± 0.025
EVDTLELTRQVKEKLAKNGICQRIFGEKVLGLSQGSVSDMRSRPKPWSKLTQKGREPFIRMQLWLSDQL [L41R] | -0.226 ± 0.051
EVDTLELTRQVKEKLAKNGICQRIFGEKVLGLSQGSVSDMYSRPKPWSKLTQKGREPFIRMQLWLSDQL [L41Y] | -0.418 ± 0.053
EVDTLELTRQVKEKLAKNGICQRIFGEKVLGLSQGSVSDMFSRPKPWSKLTQKGREPFIRMQLWLSDQL [L41F] | -0.088 ± 0.046
EVDTLELTRQVKEKLAKNGICQRIFGEKVLGLSQGSYSDMLSRPKPWSKLTQKGREPFIRMQLWLSDQL [V37Y] | -0.257 ± 0.06
EVDTLELTRQVKEKLAKNGICQRIFGEKVLGLSQGSASDMLSRPKPWSKLTQKGREPFIRMQLWLSDQL [V37A] | -0.139 ± 0.038
EVDTLELTRQVKEKLAKNGICQRIFGEKVLGLSQGSVSDMLSRPKPASKLTQKGREPFIRMQLWLSDQL [W47A] | -0.81 ± 0.06
EVDTLELTRQVKEKLAKNGICQRIEGEKVLGLSQGSVSDMLSRPKPWSKLTQKGREPFIRMQLWLSDQL [F25E] | -0.904 ± 0.054
EVDDLELTRQVKEKLAKNGICQRIFGEKVLGLSQGSVSDMLSRPKPWSKLTQKGREPFIRMQLWLSDQL [T4D] | -0.092 ± 0.066
EVDTLELTRQVKEKLAKNGICQRIFGEKVLGLSQGSVSDMLSRPKPWSKLTQKGREPFARMQLWLSDQL [I59A] | -0.079 ± 0.039
EVDTLELTRQVKEKLAKNGICQRIFGVKVLGLSQGSVSDMLSRPKPWSKLTQKGREPFIRMQLWLSDQL [E27V] | -0.18 ± 0.025
EVDTLELTRQVKEKLAKNGSCQRIFGEKVLGLSQGSVSDMLSRPKPWSKLTQKGREPFIRMQLWLSDQL [I20S] | -0.342 ± 0.038
EVDTLELTRQVKEKLAKNGECQRIFGEKVLGLSQGSVSDMLSRPKPWSKLTQKGREPFIRMQLWLSDQL [I20E] | -0.575 ± 0.061
EVDTLENTRQVKEKLAKNGICQRIFGEKVLGLSQGSVSDMLSRPKPWSKLTQKGREPFIRMQLWLSDQL [L7N] | 0.034 ± 0.089

Variant | abundance fitness
EVDTLELTRQVKEKLAKNGICQRIFGEKVLGLSQGSVSDMLSRPKPWSKLTQKGREPFIVMQLWLSDQL [R60V] | -0.863 ± 0.091
EVDTLELTRQVKEKLAKNGICQRIFGEKVLGLSQGSVSDMLSRPKPWSKLTQKGREPFIQMQLWLSDQL [R60Q] | -0.111 ± 0.032
EVDTLELTRQVKEKLAKNGICQRIFGEKVLGLSQGSVSDMLSRRKPWSKLTQKGREPFIRMQLWLSDQL [P44R] | -0.03 ± 0.042
EVDTLELTRQVKEKLAKNGICQRIFGEKVLGLSQGSVSDMLSRHKPWSKLTQKGREPFIRMQLWLSDQL [P44H] | -0.241 ± 0.05
EVDTLELTRQVKEKLAKNGICQRIFGEKVLGLSQGSVSDMLSRSKPWSKLTQKGREPFIRMQLWLSDQL [P44S] | -0.171 ± 0.036
EVDTLSLTRQVKEKLAKNGICQRIFGEKVLGLSQGSVSDMLSRPKPWSKLTQKGREPFIRMQLWLSDQL [E6S] | -0.095 ± 0.047
EVDTLELTRQVKEKLAKNGICQRIFGEKVLGLSQGSVSDMLSRPKPWSKLTQKGREPGIRMQLWLSDQL [F58G] | -0.888 ± 0.099
EVDTLELTRQVKEKLAKNGICQRIFGEKVLGLSQGSVSDMLSRPKPWSKLTQKGREPCIRMQLWLSDQL [F58C] | -0.845 ± 0.12
EVDTLELTRQVKEKLAKNGICQRIFGEMVLGLSQGSVSDMLSRPKPWSKLTQKGREPFIRMQLWLSDQL [K28M] | -0.155 ± 0.032
EVDTLELTRQVKEKLAKNGICQRIFGEKVLGLSKGSVSDMLSRPKPWSKLTQKGREPFIRMQLWLSDQL [Q34K] | 0.069 ± 0.045
EVDTLELTRQVKEKLAKNGICQRIFGEKVLGLSGGSVSDMLSRPKPWSKLTQKGREPFIRMQLWLSDQL [Q34G] | 0.434 ± 0.23
EHDTLELTRQVKEKLAKNGICQRIFGEKVLGLSQGSVSDMLSRPKPWSKLTQKGREPFIRMQLWLSDQL [V2H] | -0.201 ± 0.068
EGDTLELTRQVKEKLAKNGICQRIFGEKVLGLSQGSVSDMLSRPKPWSKLTQKGREPFIRMQLWLSDQL [V2G] | -0.001 ± 0.05
EVDTLELTRQVKEKLAKNGICQRIFGEKVLGLSQGSVSDMLSRPKPWSKLTQKGREPFIRMQLWLSDQP [L69P] | -0.163 ± 0.057
EVDTLELTRQVKEKLAKNGICQRIFGEKVLGLSQGSVSDMLSRPKPWSKLTQKGREPFIRMQLWLSDQT [L69T] | -0.199 ± 0.059
EVDTLELTRQVKEKLAKNGICQRIFGEKVLGLSQGSVSDMLSRPKPWSKLTQKGREPFIRMQLWLPDQL [S66P] | -0.998 ± 0.046
EVDTLELTRQVKEKNAKNGICQRIFGEKVLGLSQGSVSDMLSRPKPWSKLTQKGREPFIRMQLWLSDQL [L15N] | -0.184 ± 0.059
EVDTLELTRQVKEKMAKNGICQRIFGEKVLGLSQGSVSDMLSRPKPWSKLTQKGREPFIRMQLWLSDQL [L15M] | 0.053 ± 0.034
EVDTLELTRQVKEKYAKNGICQRIFGEKVLGLSQGSVSDMLSRPKPWSKLTQKGREPFIRMQLWLSDQL [L15Y] | -0.124 ± 0.052
